Measurements taken from patent US20200024330A1.

Legend:
Experiment in all cases: cell-based or functional assay
[1] = biological target: HIV-1 MGRM-F1-006 Env (pseudovirus) (HIV-1)
[2] = biological target: HIV-1 Env of isolate MGRM-D-005 (clade D) (HIV-1)
[3] = biological target: HIV-1 MGRM-A-010 envelope glycoprotein (Env) (HIV-1)
[4] = biological target: HIV-1 MGRM-C-004 Env (HIV-1)
[5] = biological target: HIV-1 92UG024 envelope protein (Env) on pseudovirus (HIV-1)
[6] = biological target: HIV-1 MGRM-A-011 envelope glycoprotein (Env) (HIV-1)
[7] = biological target: HIV-1 Env of isolate MGRM-G-014 (clade G pseudovirus) (HIV-1)
[8] = biological target: HIV-1 MGRM-C-019 Env (HIV-1)
[9] = biological target: HIV-1 Env of isolate MGRM-D-014 (clade D) (HIV-1)
[10] = biological target: aMLV envelope protein on pseudovirus
[11] = biological target: HIV-1 MGRM-C-017 Env (HIV-1)
[12] = biological target: HIV-1 MGRM-C-025 Env (HIV-1)
[13] = biological target: HIV-1 Env of isolate 92UG024 (clade D) (HIV-1)
[14] = biological target: HIV-1 92RW008 envelope glycoprotein (Env) (HIV-1)
[15] = biological target: HIV-1 Env of pseudovirus APV_17, clade B (HIV-1)
[16] = biological target: HIV-1 92RW021 envelope glycoprotein (Env) on pseudovirus (HIV-1)
[17] = biological target: HIV-1 MGRM-A-004 envelope glycoprotein (Env) (HIV-1)
[18] = biological target: HIV-1 Env of pseudovirus NL43, clade B (HIV-1)
[19] = biological target: HIV-1 Env of isolate MGRM-G-014 (subtype G) (HIV-1)
[20] = biological target: HIV-1 Env of isolate MGRM-G-028 (subtype G) (HIV-1)
[21] = biological target: HIV-1 Env of isolate MGRM-C-022 (pseudovirus) (HIV-1 isolate MGRM-C-022, subtype C)
[22] = biological target: HIV-1 JRCSF Env (pseudovirus) (HIV-1) (UniProt P20871)
[23] = biological target: HIV-1 Env of isolate MGRM-C-014 (pseudovirus) (HIV-1 isolate MGRM-C-014, subtype C)
[24] = biological target: HIV-1 Env of isolate MG RM-AG-002 (HIV-1)
[25] = biological target: HIV-1 Env of isolate MG RM-AG-012 (HIV-1)
[26] = biological target: HIV-1 Env of isolate MGRM-C-010 (pseudovirus) (HIV-1 isolate MGRM-C-010, subtype C)
[27] = biological target: HIV-1 Env of isolate MGRM-C-017 (pseudovirus) (HIV-1 isolate MGRM-C-017, subtype C)
[28] = biological target: HIV-1 APV_13 Env (pseudovirus) (HIV-1)
[29] = biological target: HIV-1 Env of isolate MGRM-D-022 (HIV-1)
[30] = biological target: HIV-1 Env of isolate MGRM-Chronic-B-002 (HIV-1)
[31] = biological target: HIV-1 Env of isolate MGRM-D-020 (HIV-1)
[32] = biological target: HIV-1 Env of isolate 92UG005 (HIV-1)
[33] = biological target: HIV-1 Env of isolate 93UG077 (HIV-1)
[34] = biological target: HIV-1 Env of isolate MGRM-D-008 (HIV-1)
[35] = biological target: HIV-1 MGRM-D-018 envelope glycoprotein (Env) on pseudovirus (HIV-1)

Sequence of PGT-144 (4970_K22) (antibody) (VH): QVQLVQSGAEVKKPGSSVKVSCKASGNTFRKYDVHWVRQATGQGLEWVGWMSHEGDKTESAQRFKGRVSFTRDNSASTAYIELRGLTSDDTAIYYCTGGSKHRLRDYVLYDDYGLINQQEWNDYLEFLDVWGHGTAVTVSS
Sequence of PGT-144 (4970_K22) (antibody) (VL): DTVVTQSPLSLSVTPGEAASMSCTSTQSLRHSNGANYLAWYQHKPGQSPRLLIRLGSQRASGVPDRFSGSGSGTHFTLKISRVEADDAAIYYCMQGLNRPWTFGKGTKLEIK
Sequence of PGT-143 (4980_N08) (antibody) (VH): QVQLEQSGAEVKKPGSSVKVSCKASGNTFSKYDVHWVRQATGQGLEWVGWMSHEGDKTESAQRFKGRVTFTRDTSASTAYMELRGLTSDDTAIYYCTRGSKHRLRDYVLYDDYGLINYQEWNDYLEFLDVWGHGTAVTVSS
Sequence of PGT-143 (4980_N08) (antibody) (VL): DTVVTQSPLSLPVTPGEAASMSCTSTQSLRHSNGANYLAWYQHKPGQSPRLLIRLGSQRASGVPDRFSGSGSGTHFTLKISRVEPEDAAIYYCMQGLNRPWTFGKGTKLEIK

b12 (antibody)
IC50 (µg/ml), pseudovirus neutralization [1]: > 50 µg/mL
IC50 (µg/ml), pseudovirus neutralization [2]: > 50 µg/mL
IC50 (µg/ml), pseudovirus neutralization [3]: > 50 µg/mL
IC50 [4]: 5.46 µg/mL
neutralization IC50 [5]: 49.1 µg/mL
IC50 (µg/ml), pseudovirus neutralization [6]: 4.01 µg/mL
IC50 (µg/ml), pseudovirus neutralization [7]: > 50 µg/mL
IC50 [8]: > 50 µg/mL
IC50 (µg/ml), pseudovirus neutralization [9]: > 50 µg/mL
neutralization IC50 [10]: > 50 µg/mL
IC50 [11]: > 50 µg/mL
IC50 [12]: > 50 µg/mL
IC50 (µg/ml), pseudovirus neutralization [13]: 45.6 µg/mL
IC50 (µg/ml), pseudovirus neutralization [14]: 9.46 µg/mL
IC50 (µg/ml), pseudovirus neutralization [15]: > 50 µg/mL
IC50 (µg/ml), pseudovirus neutralization [16]: > 50 µg/mL
IC50 (µg/ml), pseudovirus neutralization [17]: > 50 µg/mL
IC50 (µg/ml), pseudovirus neutralization [18]: 0.17 µg/mL

PGT-143 (4980_N08) (antibody)
neutralization IC50 [19]: 0.107 µg/mL
neutralization IC50 [20]: 43 µg/mL

5145_B14 (PGT-127) (antibody)
IC50 (µg/mL) neutralization [21]: 0.41 µg/mL
IC50, pseudovirus neutralization [22]: 0.018 µg/mL
IC50 (µg/mL) neutralization [23]: > 50 µg/mL
neutralization IC50 [24]: > 50 µg/mL
neutralization IC50 [25]: > 50 µg/mL
IC50 (µg/mL) neutralization [26]: > 50 µg/mL
IC50 (µg/mL) neutralization [27]: 3.4 µg/mL
IC50, pseudovirus neutralization [28]: 0.026 µg/mL

VRC01 (antibody)
IC50, pseudovirus neutralization [29]: > 50 µg/mL
IC50 [30]: 0.117 µg/mL
neutralization IC50 [19]: 0.056 µg/mL
neutralization IC50 [20]: 0.164 µg/mL
IC50, pseudovirus neutralization [31]: 0.192 µg/mL

PGV04 (antibody)
IC50 (µg/mL), pseudovirus neutralization [29]: > 50 µg/mL
IC50 (µg/mL), pseudovirus neutralization [32]: 0.44 µg/mL
IC50 [33]: 0.083 µg/mL
IC50 (µg/mL), pseudovirus neutralization [34]: 3.56 µg/mL
neutralization IC50 [19]: 0.056 µg/mL
neutralization IC50 [20]: 0.352 µg/mL
IC50 (µg/mL), pseudovirus neutralization [31]: 0.097 µg/mL

4E10 (antibody)
IC50 (µg/ml), pseudovirus neutralization [1]: 1.01 µg/mL
IC50 (µg/ml), pseudovirus neutralization [2]: 35.2 µg/mL
IC50 (µg/ml), pseudovirus neutralization [3]: 14.4 µg/mL
IC50 [4]: 24.2 µg/mL
neutralization IC50 [5]: 1.32 µg/mL
IC50 (µg/ml), pseudovirus neutralization [6]: 2.88 µg/mL
IC50 (µg/ml), pseudovirus neutralization [7]: 13.7 µg/mL
IC50 [8]: 3.49 µg/mL
IC50 (µg/ml), pseudovirus neutralization [9]: 3.24 µg/mL
neutralization IC50 [10]: > 50 µg/mL
IC50 [11]: 1.47 µg/mL
IC50 [12]: 5.58 µg/mL
IC50 (µg/ml), pseudovirus neutralization [13]: 2.17 µg/mL
IC50 (µg/ml), pseudovirus neutralization [14]: 14.5 µg/mL
IC50 (µg/ml), pseudovirus neutralization [15]: 10.5 µg/mL
IC50 (µg/ml), pseudovirus neutralization [16]: 4.87 µg/mL
IC50 (µg/ml), pseudovirus neutralization [17]: 3.14 µg/mL
IC50 (µg/ml), pseudovirus neutralization [18]: 4.67 µg/mL

PGT-144 (4970_K22) (antibody)
neutralization IC50 [19]: 0.562 µg/mL
neutralization IC50 [20]: > 50 µg/mL

1496_C09 (PG9) (TCN-109) (antibody)
IC50 (µg/ml), pseudovirus neutralization [1]: 1.45 µg/mL
IC50 (µg/ml), pseudovirus neutralization [2]: 0.59 µg/mL
IC50 neutralization [3]: 0.0375 µg/mL
IC50 [4]: 1.18 µg/mL
IC50 (µg/mL), pseudovirus neutralization [34]: 11.5 µg/mL
IC50 (µg/ml), pseudovirus neutralization [7]: 6.32 µg/mL
neutralization IC50 [19]: 16.5 µg/mL
IC50 [8]: 0.01 µg/mL
neutralization IC50 [20]: 0.891 µg/mL
IC50 [11]: 1.52 µg/mL
IC50 [12]: 0.17 µg/mL
IC50 (µg/ml), pseudovirus neutralization [13]: 1.91 µg/mL
IC50 (µg/ml), pseudovirus neutralization [14]: 0.01 µg/mL
IC50 (µg/ml), pseudovirus neutralization [15]: 14.6 µg/mL
IC50 (µg/ml), pseudovirus neutralization [16]: 0.05 µg/mL
IC50 (µg/mL), pseudovirus neutralization [31]: 1.67 µg/mL
IC50 (ug/ml), neutralizing activity [35]: 2.04 µg/mL
IC50 neutralization [35]: 0.0444 µg/mL
IC80, neutralization [35]: 0.18 µg/mL
IC90, neutralization [35]: 0.43 µg/mL
IC95, neutralization [35]: 1.05 µg/mL
IC50 (µg/ml), pseudovirus neutralization [18]: 0.32 µg/mL

4858_P08 (PGT-123) (antibody)
IC50 (µg/mL) neutralization [21]: 0.01 µg/mL
IC50, pseudovirus neutralization [22]: 0.046 µg/mL
IC50 (µg/mL) neutralization [23]: 1 µg/mL
neutralization IC50 [24]: > 50 µg/mL
neutralization IC50 [25]: > 50 µg/mL
IC50 (µg/mL) neutralization [26]: > 50 µg/mL
IC50 (µg/mL) neutralization [27]: 0.01 µg/mL
IC50, pseudovirus neutralization [28]: 0.138 µg/mL
IC50 (ug/ml), neutralizing activity [35]: 0.0047 µg/mL
IC50, pseudovirus neutralization [35]: 0.0047 µg/mL
IC80, pseudovirus neutralization [35]: 0.0175 µg/mL
IC90 (pseudovirus neutralization) [35]: 0.0381 µg/mL
IC95, pseudovirus neutralization [35]: 0.0791 µg/mL
